In the supplement of paper PMC10126150:
± gives the standard deviation of the averaged measurements.

System: ATP
Experiment: switch fluorescence ratio, 500 uM ATP over buffer (Cy3 cluster intensity, sum of 5 cycles each) (fold (ratio)); higher = stronger signal-on switching upon ATP binding; sequences stand for … in TCGTCGGCAGCGTCAGATGTGTATAAGAGACAGTTTTTTTTTTTTTTTTTTTTTTTTT…TC
Conditions: aptamer strand: ATP DNA aptamer (quencher-CACCTGGGGGAGTATTGCGGAGGAAGG + anchor), 100 nM annealed; ATP concentration: 500 uM
Outline: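 The quencher-labelled ATP aptamer, at 100 nM, was annealed to Cy3-labelled switching-strand clusters on a modified Illumina MiSeq flow-cell. The clusters were imaged in selection buffer, then after 15 min with 500 uM ATP at 22 °C, and this buffer/ATP cycle ran five times with NaOH stripping and re-annealing between runs. Per-cluster fluorescence ratios, summed target-cycle over summed buffer-cycle Cy3 intensity, were averaged per switch-domain sequence. Clusters outside 100-1000 RFU were excluded.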
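Also: ATP exposure 15 min at 22 °C before imaging.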

Sequence	switch fluorescence ratio
GAGTGGGATT	0.981 ± 0.011
GATGGGGTGG	1 ± 0.016
TACGGGAACG	1.06 ± 0.018
GCCGGCTGTG	0.9902 ± 0.0018
CCAGCATGGG	1.02 ± 0.015
TTTGTCCTTA	0.9932 ± 0.0017
TGTTCCGGAC	1.023 ± 0.0058
TTAGTTTTAC	1.004 ± 0.0029
AGATGGAGGC	1.0705 ± 0.00017
CGCTTCCGGG	1.37 ± 0.059
GCTGGTTGA	1.01 ± 0.014
ACTTTGGAGG	1.02 ± 0.034
CGTTTTCGGG	1.02 ± 0.016
AGATTAGGGA	0.975 ± 0.017
TCGAGCGAAC	2.1 ± 0.53
TCCCATATAT	1.09 ± 0.014
TAATAAAATT	1.04 ± 0.083
TAGGTTCGAC	0.972 ± 0.031
ATTCTCCTTG	1 ± 0.017
GTGAAAGATT	1.02 ± 0.041
CAGGGATTTG	0.9599 ± 0.0044
CCTTACGGCA	1.53 ± 0.068
TAGTGTAGGA	1 ± 0.034
TTGCGCGCTA	0.98 ± 0.054
TACGCTTTTT	1.02 ± 0.055

Sequence	switch fluorescence ratio
ATGCGCTCTA	0.992 ± 0.018
ATCAAAATAA	1.06 ± 0.059
AGTTTGAGTT	1.02 ± 0.052
AGTTTGTCCC	1.02 ± 0.0057
TTAACGGTCT	1.04 ± 0.027
TTTGCAAACT	0.994 ± 0.017
AGAATGGAGG	0.994 ± 0.025
CGGTTGTAGC	1 ± 0.021
GGGCCTCGGT	0.9914 ± 0.0087
AACGGGCCAG	0.997 ± 0.028
TAAAGAGGGG	1 ± 0.021
ATATGGATGA	0.96 ± 0.03
ACCTAGCTCC	1.71 ± 0.056
CGGGGAATTT	1.01 ± 0.022
TTTGTGATGT	1.02 ± 0.066
GGCATATGCT	1.02 ± 0.025
GAACCGGGTT	0.9987 ± 0.0079
GGATTTGTGT	1.01 ± 0.034
CAGTCTGCTG	1.0037 ± 0.00071
AAAAGTGTTA	0.977 ± 0.027
CCGGGGGTTC	1.05 ± 0.062
CAGTGTGCAG	0.9602 ± 0.0028
GCCATGACGG	0.988 ± 0.027
GCATGTGTTC	0.995 ± 0.038
CGGATGCGGT	1.013 ± 0.0075

Sequence	switch fluorescence ratio
AAGAAGTTTT	1 ± 0.035
TTTGAGTGCG	0.973 ± 0.025
CATGCTGTA	0.981 ± 0.025
ATAAGCTTCT	1.09 ± 0.073
ACTCAGTATA	1.1 ± 0.02
GGGGTCCTTT	0.9886 ± 0.0044
AGGTTACGAG	1 ± 0.02
ATGCAGTATT	1.03 ± 0.025
ATTGCGCAAG	1.01 ± 0.02
TTAGGCAGGG	1 ± 0.016
TCTTGTTTGA	1.008 ± 0.0059
CTGCAACAGA	1.0455 ± 0.00015
TGAGTATTGC	0.969 ± 0.04
TGATATTGGT	1.01 ± 0.021
CCCATGATGG	1.01 ± 0.046
TGGTTAGAAT	0.986 ± 0.024
AAAATGAGTG	0.985 ± 0.021
TAGATATTTT	0.986 ± 0.032
TAGAGGGGGA	0.987 ± 0.018
GGGATTCGGA	0.9499 ± 0.0088
AAGAGTTCTT	1.01 ± 0.03
CTGGTTTGGA	1 ± 0.022
ATTAACTTTG	1.01 ± 0.05
AGGTGTAGGC	0.979 ± 0.038
TTTCAAAATT	0.994 ± 0.018

Sequence	switch fluorescence ratio
GACACCATCC	1.55 ± 0.18
TACGGTTGCA	1.01 ± 0.017
TTTGAAGTTT	1 ± 0.018
GCGAGAGCTG	0.992 ± 0.017
AGTAGGGGAC	0.994 ± 0.022
TATCCACCGT	1.077 ± 0.0031
CCGTCTACGC	1.16 ± 0.048
TGCCTTATTA	1.035 ± 0.0067
TTTGGGATTA	0.983 ± 0.041
ACCGCATAGG	1.0484 ± 4.5e-05
TCAGAGGCTG	0.988 ± 0.015
ATGCTGGTTA	0.996 ± 0.016
CTGGTGGGGT	1.02 ± 0.044
AAAATTATTT	1.01 ± 0.021
TCTTGGGGCA	1.01 ± 0.019
AGGTGCTTGG	0.997 ± 0.026
ATCTAGTACC	0.999 ± 0.046
TTTTTTTTGT	1 ± 0.035
CATTGAATAT	0.996 ± 0.043
ATGTTTTCCT	1.0718 ± 0.00067
GGCGTCGTAT	0.9961 ± 0.0015
ATGGGTGATC	1.01 ± 0.011
TCGAAATTTT	1 ± 0.022
TAGATAGAGT	0.994 ± 0.024
TTCAATGGCA	1.0245 ± 0.00028
